{"source": "patent US20150017651A1", "about": "(University of Texas, published 2015)", "binders": {"B1": {"name": "SuFu (other, human, UniProt Q9UMX1 1-484, looked up)", "chain": "MAELRPSGAPGPTAPPAPGPTAPPAFASLFPPGLHAIYGECRRLYPDQPNPLQVTAIVKYWLGGPDPLDYVSMYRNVGSPSANIPEHWHYISFGLSDLYGDNRVHEFTGTDGPSGFGFELTFRLKRETGESAPPTWPAELMQGLARYVFQSENTFCSGDHVSWHSPLDNSESRIQHMLLTEDPQMQPVQTPFGVVTFLQIVGVCTEELHSAQQWNGQGILELLRTVPIAGGPWLITDMRRGETIFEIDPHLQERVDKGIETDGSNLSGVSAKCAWDDLSRPPEDDEDSRSICIGTQPRRLSGKDTEQIRETLRRGLEINSKPVLPPINPQRQNGLAHDRAPSRKDSLESDSSTAIIPHELIRTRQLESVHLKFNQESGALIPLCLRGRLLHGRHFTYKSITGDMAITFVSTGVEGAFATEEHPYAAHGPWLQILLTEEFVEKMLEDLEDLTSPEEFKLPKEYSWPEKKLKVSILPDVVFDSPLH", "notes": "also called suppressor of fused"}}, "key": {"[1]": {"target": "T1, flag-tagged Gli1S84A (human, UniProt P08151 1-1106)", "T1 construct": "also called flag-Gli1S84A; not shown: flag tag from vector p3flag-CMV10", "T1 sequence (looked up)": "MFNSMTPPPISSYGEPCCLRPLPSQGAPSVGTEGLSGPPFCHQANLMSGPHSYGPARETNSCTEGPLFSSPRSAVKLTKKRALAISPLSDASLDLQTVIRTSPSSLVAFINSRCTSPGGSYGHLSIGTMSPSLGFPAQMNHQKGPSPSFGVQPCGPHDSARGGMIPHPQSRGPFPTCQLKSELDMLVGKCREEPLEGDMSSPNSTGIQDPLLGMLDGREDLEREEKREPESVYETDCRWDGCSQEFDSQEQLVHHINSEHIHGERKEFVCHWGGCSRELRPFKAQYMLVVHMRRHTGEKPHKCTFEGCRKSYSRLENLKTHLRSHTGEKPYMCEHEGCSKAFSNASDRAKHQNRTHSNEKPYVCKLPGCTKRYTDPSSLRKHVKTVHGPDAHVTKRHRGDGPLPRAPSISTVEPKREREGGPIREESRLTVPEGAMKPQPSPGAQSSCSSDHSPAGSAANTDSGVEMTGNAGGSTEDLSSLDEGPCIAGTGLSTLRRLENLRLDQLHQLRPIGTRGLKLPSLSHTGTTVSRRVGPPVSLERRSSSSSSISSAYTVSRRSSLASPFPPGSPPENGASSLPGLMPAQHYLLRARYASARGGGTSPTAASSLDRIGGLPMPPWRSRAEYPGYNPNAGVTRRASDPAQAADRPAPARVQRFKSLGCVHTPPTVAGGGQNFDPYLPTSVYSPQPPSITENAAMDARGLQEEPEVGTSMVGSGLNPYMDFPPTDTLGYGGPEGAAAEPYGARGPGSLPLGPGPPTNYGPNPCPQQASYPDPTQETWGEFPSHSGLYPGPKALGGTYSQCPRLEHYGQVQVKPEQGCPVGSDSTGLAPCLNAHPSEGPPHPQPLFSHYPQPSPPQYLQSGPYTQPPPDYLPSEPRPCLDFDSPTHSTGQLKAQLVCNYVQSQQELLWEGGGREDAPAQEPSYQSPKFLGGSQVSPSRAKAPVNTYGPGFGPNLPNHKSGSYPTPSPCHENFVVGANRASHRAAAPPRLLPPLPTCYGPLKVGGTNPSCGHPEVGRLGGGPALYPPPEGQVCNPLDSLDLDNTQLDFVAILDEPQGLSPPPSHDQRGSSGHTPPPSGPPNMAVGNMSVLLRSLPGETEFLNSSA", "assay": "IP-Western, flag-tagged Gli1S84A transfected into BE3 cells", "procedure": "(§1) FIGS. 13A-13K. related to FIG. 5. […] FIG. 13A. Luciferase assay of Gli reporter in the stable clones treated by TNFα alone (5 ng/mL) or TNFα plus rapamycin (100 nM). Error bars represent SD (n=3). FIG. 13B. Gli1 immunofluorescence staining in several BE3 stable clones with TNFα treatment. Scale bar=100 μm for original picture and 25 μm for inset. FIG. 13C. The regulation of p-Gli1 by TNFα alone or together with rapamycin (10, 50, and 100 nM) in the BE3 stable clone. FIG. 13D. MTT assay of the various Gli1 stable clones. All cells were counted, and then 3,000 cells were seeded in each well of a 96-well plate. Error bars represent SD (n=3). FIG. 13E. Soft-agar assay of the various Gli1 stable clones. All cells were counted, and then 1,000 cells were mixed with agarose for each well of a 24-well plate. Left, representative microscopic images. Right, quantitation of colony formation. Error bars represent SD (n=3). FIG. 13F. Invasion assay of the various Gli1 stable clones. All cells were counted, and then 1,000 cells were seeded on matrigel in transwells. Left, representative microscopic images from the bottom side of transwell membranes. Right, quantitation of invasive cells. Error bars represent SD (n=3). FIGS. 13G-13I. The assays of MTT (G), soft agar (H), and invasion (I) using the BE3 stable clones treated with TNFα."}, "[2]": {"target": "T2, flag-tagged Gli1S84E (human, UniProt P08151 1-1106)", "T2 construct": "not shown: flag tag from vector p3flag-CMV10", "T2 sequence (looked up)": "T1 sequence (looked up) with A84E", "assay": "IP-Western, flag-tagged Gli1S84E transfected into BE3 cells", "procedure": "as §1"}}, "note": "Positions count from the first letter of the chain named."}
{"binder": "B1", "values": [{"measurement": "binding result", "setting": "[1]", "value": "binds"}, {"measurement": "binding result", "setting": "[2]", "value": "binds"}]}
